Assay results from patent publication US7176008B2, “Process for producing activated thrombin-activatable fibrinolysis inhibitor” (Merck & Co., Inc., priority 2002, dated 2007).

B1: TAFIa (Homo sapiens) (protein)
chain: ASASYYEQYHSLNEIYSWIEFITERHPDMLTKIHIGSSFEKYPLYVLKVSGKEQAAKNAIWIDCGIHAREWISPAFCLWFIGHITQFYGIIGQYTNLLRLVDFYVMPVVNVDGYDYSWKKNRMWRKNRSFYANNHCIGTDLNRNFASKHWCEEGASSSSCSETYCGLYPESEPEVKAVASFLRRNINQIKAYISMHSYSQHIVFPYSYTRSKSKDHEELSLVASEAVRAIEKISKNTRYTHGHGSETLYLAPGGGDDWIYDLGIKYSFTIELRDTGTYGFLLPERYIKPTCREAFAAVSKIAWHVIRNV
B2: CPB (Homo sapiens) (protein)
chain: ATGHSYEKYNKWETIEAWTQQVATENPALISRSVIGTTFEGRAIYLLKVGKAGQNKPAIFMDCGFHAREWISPAFCQWFVREAVRTYGREIQVTELLDKLDFYVLPVLNIDGYIYTWTKSRFWRKTRSTHTGSSCIGTDPNRNFDAGWCEIGASRNPCDETYCGPAAESEKETKALADFIRNKLSSIKAYLTIHSYSQMMIYPYSYAYKLGENNAELNALAKATVKELASLHGTKYTYGPGATTIYPAAGGSDDWAYDQGIRYSFTFELRDTGRYGFLLPESQIRATCEETFLAIKYVASYVLEHLY
B3: CPM (Homo sapiens) (protein)
chain: LDFNYHRQEGMEAFLKTVAQNYSSVTHLHSIGKSVKGRNLWVLVVGRFPKEHRIGIPEFKYVANMHGDETVGRELLLHLIDYLVTSDGKDPEITNLINSTRIHIMPSMNPDGFEAVKKPDCYYSIGRENYNQYDLNRNFPDAFEYNNVSRQPETVAVMKWLKTETFVLSANLHGGALVASYPFDNGVQATGALYSRSLTPDDDVFQYLAHTYASRNPNMKKGDECKNKMNFPNGVTNGYSWYPLQGGMQDYNYIWAQCFEITLELSCCKYPREEKLPSFWNNNKASLIEYIKQVHLGVKGQVFDQNGNPLPNVIVEVQDRKHICPYRTNKYGEYYLLLLPGSYIINVTVPGHDPHITKVIIPEKSQNFSALKKDILLPFQGQLDSIPVSNPSCPMIPLYRNLPDHS

Substrate: CSCC[C@H](NC(=O)[C@H](CC(C)C)NC(=O)CNC(=O)CCCCCNC(=O)CCCCCNC(=O)CCCC[C@@H]1SC[C@@H]2NC(=O)N[C@@H]21)C(=O)N[C@H](C(=O)NCC(=O)NCC(=O)N[C@H](C(=O)N[C@H](C(=O)N[C@@H](CCCNC(=N)N)C(=O)O)C(C)C)C(C)C)C(C)C
Test: purified protein, by the assay type
Settings: other: room temperature
Protocol: A typical assay (75 μL) contained each studied carboxypeptidase and selected inhibitors (in 5 μL DMSO) in HBSP buffer in 96-well round bottom microtiter plates (Costar 3365 plates). Enzyme and compound were preincubated for 15–30 minutes at room temperature. […] The final substrate concentration was 15 to 50 nM. The amount of carboxypeptidase activity was titrated to result in 40,000–50,000 electrochemiluminescence counts (typically 0.02–0.1 nM, 0.01 nM, 5 nM, and 0.15–0.65 nM. for TAFIa, CPB, CPN and CPM, respectively). […] Ruthenium-labeled G2-10 (25 μL of 0.063 μg/mL) and streptavidin magnetic beads (25 μL of 0.2 mg/mL, Dynabeads M-280) were added to the quenched solution and shaken at 300 rpm for >1 hr. G2-10 antibody and beads were prepared in a BSA diluent containing 150 mM phosphate, pH 7.8, 150 mM NaCl, 3% (w/v) BSA (protease free fraction V) and 0.05% NaN3. The volume was brought to 250 μL with HBSP and read on an Igen 96-well electrochemiluminescence plate reader (M8 Analyzer) at 620 nm. Subtraction of background activity in solutions containing only substrate was performed to determine the final activity. […] One unit was defined as one nM product generated per min.
All measurements were performed in at least duplicates and the inhibition constants (Ki) were determined by the equation below wherein Vo and Vi are activity in the absence and presence of inhibitors, respectively. Vo/Vi=1+[I]/K1
Several commercial inhibitors were tested with the electrochemiluminescence assay.
Hydrolysis of substrate was measured in HBSP (pH 7.4) for TAFIa, CPB, CPM, and CPM. Activities of CPE and CPZ were measures in acetate buffer (pH 5.5) and Tris buffer (pH 7.4), respectively.

Protein	Km (HBSP pH 7.4) [µM]	Km [µM]
B1	8	
B2	12	
B3		38
